The target in this data set is GST-Sam68(1-277) (UniProt Q60749 1-277). The data set can be described thus: EMSA. (Mobility shift assays separate free from complexed probe on a gel.)

Experimental findings from paper PMC3130265 are described below.

Chain of GST-Sam68(1-277) (Q60749 1-277): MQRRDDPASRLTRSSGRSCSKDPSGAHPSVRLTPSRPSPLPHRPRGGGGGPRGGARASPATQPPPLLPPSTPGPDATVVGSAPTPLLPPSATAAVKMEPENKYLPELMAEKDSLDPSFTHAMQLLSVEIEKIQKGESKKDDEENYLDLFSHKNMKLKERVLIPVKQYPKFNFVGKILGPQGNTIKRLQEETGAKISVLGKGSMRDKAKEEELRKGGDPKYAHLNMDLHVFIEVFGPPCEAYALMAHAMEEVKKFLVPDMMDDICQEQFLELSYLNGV

For UAUUUAAUUCAUAAAUUUUGUUUUGUUUCUAGGGA (ssRNA) [Sgce WT probe (intron 7/exon 8 boundary)], the binding result was “binds”.
